Experimental data: patent US20190010243A1

Tests used:
[1] = target: CD32A^H (UniProt P12318); test: SPR (BIACORE); koff compared with wild-type Fc
[2] = target: soluble human FcγRIIB (human) (UniProt P31994); test: SPR (BIACORE); koff compared with wild-type Fc
[3] = target: soluble human FcγRIIIA V158 (human) (UniProt P08637); test: SPR (BIACORE); koff compared with wild-type Fc
[4] = target: soluble human FcγRIIIA F158 (human) (UniProt P08637); test: SPR (BIACORE); koff compared with wild-type Fc
[5] = target: soluble human FcRn (human) (UniProt P55899); test: SPR (Biacore 3000); ch4420 captured on protein-FITC surface; 500 nM hFcRn injected; pH 6.0
Sequence of UniProt P55899 (P55899 24-297 limits assumed, chain 1 of 2): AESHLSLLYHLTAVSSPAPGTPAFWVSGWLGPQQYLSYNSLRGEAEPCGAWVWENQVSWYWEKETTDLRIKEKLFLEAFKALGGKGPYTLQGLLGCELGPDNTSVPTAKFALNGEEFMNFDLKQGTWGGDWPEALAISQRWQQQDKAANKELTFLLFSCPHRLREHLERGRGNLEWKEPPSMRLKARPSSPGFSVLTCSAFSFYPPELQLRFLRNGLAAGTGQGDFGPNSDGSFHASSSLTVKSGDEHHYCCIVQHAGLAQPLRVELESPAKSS
Sequence of UniProt P55899 (P61769 21-119 limits assumed, chain 2 of 2, further chain): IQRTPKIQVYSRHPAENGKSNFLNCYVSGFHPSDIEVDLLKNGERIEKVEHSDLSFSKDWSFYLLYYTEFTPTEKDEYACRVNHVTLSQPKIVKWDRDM

Sequence of UniProt P31994 (P31994 43-217 limits assumed): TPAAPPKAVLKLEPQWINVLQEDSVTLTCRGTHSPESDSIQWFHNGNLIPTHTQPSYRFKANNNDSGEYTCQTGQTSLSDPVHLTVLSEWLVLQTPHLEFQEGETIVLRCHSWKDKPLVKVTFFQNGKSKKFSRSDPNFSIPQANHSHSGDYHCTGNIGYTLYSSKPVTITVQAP
Sequence of UniProt P12318 (P12318 34-217 limits assumed): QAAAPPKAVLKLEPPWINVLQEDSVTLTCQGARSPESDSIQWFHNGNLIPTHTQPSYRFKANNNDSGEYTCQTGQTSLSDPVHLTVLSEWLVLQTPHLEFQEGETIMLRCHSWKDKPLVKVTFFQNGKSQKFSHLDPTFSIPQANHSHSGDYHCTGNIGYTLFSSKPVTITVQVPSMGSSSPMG

Fc mutant 11 (R292P V305I)
ratio WT koff/mutant koff [1]: 0.8 fold
ratio WT koff/mutant koff [2]: 0.4 fold

Fc mutant 14 (F243L R292P P396L)
ratio WT koff/mutant koff [1]: 1.4 fold
ratio WT koff/mutant koff [2]: 0.4 fold
ratio WT koff/mutant koff [3]: 6.3 fold

Fc mutant 6 (V305I)
ratio WT koff/mutant koff [1]: 1.3 fold
ratio WT koff/mutant koff [2]: 1.2 fold
ratio WT koff/mutant koff [4]: 0.6 fold
ratio WT koff/mutant koff [3]: 0.9 fold

Fc mutant 1 (F243L)
ratio WT koff/mutant koff [1]: 0.6 fold
ratio WT koff/mutant koff [2]: 0.8 fold
ratio WT koff/mutant koff [3]: 4.8 fold

Fc mutant 3 (R292P)
ratio WT koff/mutant koff [1]: 0.7 fold
ratio WT koff/mutant koff [2]: 0.3 fold
ratio WT koff/mutant koff [4]: 1.6 fold
ratio WT koff/mutant koff [3]: 2.4 fold

Fc mutant 16 (F243L R292P Y300L P396L)
ratio WT koff/mutant koff [1]: 1.7 fold
ratio WT koff/mutant koff [2]: 1.1 fold
ratio WT koff/mutant koff [4]: 5.6 fold
ratio WT koff/mutant koff [3]: 10.1 fold

ch4420 variant H435K (antibody)
fold increase of binding response over wild type [5]: < 4 fold

Fc mutant 2 (D270E)
ratio WT koff/mutant koff [1]: 2.2 fold
ratio WT koff/mutant koff [2]: 0.4 fold
ratio WT koff/mutant koff [3]: 1.3 fold

Fc mutant 4 (S298N)
ratio WT koff/mutant koff [2]: 0.2 fold

Fc mutant 10 (F243L R292P)
ratio WT koff/mutant koff [1]: 0.5 fold
ratio WT koff/mutant koff [2]: 0.2 fold
ratio WT koff/mutant koff [3]: 4 fold

Fc mutant 5 (Y300L)
ratio WT koff/mutant koff [1]: 2.9 fold
ratio WT koff/mutant koff [2]: 1.2 fold
ratio WT koff/mutant koff [4]: 1.2 fold

Fc mutant 13 (F243L R292P V305I)
ratio WT koff/mutant koff [1]: 0.2 fold
ratio WT koff/mutant koff [2]: 0.1 fold
ratio WT koff/mutant koff [4]: 1.4 fold
ratio WT koff/mutant koff [3]: 2.6 fold

Fc mutant 9 (F243L P396L)
ratio WT koff/mutant koff [1]: 1.5 fold
ratio WT koff/mutant koff [2]: 1.6 fold

Fc mutant 8 (P396L)
ratio WT koff/mutant koff [1]: 1.6 fold
ratio WT koff/mutant koff [2]: 2.6 fold
ratio WT koff/mutant koff [3]: 1.3 fold

Fc mutant 7 (A330V)
ratio WT koff/mutant koff [1]: 0.4 fold
ratio WT koff/mutant koff [2]: 0.3 fold
ratio WT koff/mutant koff [4]: 1.2 fold
ratio WT koff/mutant koff [3]: 0.6 fold

Fc mutant 17 (F243L R292P V305I P396L)
ratio WT koff/mutant koff [1]: 0.8 fold
ratio WT koff/mutant koff [2]: 0.4 fold
ratio WT koff/mutant koff [4]: 2.3 fold
ratio WT koff/mutant koff [3]: 4 fold

Fc mutant 18 (F243L R292P Y300L V305I P396L)
ratio WT koff/mutant koff [1]: 3.2 fold
ratio WT koff/mutant koff [2]: 1.4 fold
ratio WT koff/mutant koff [4]: 8.3 fold
ratio WT koff/mutant koff [3]: 10.1 fold

Fc mutant 12 (F243L R292P Y300L)
ratio WT koff/mutant koff [1]: 1 fold
ratio WT koff/mutant koff [2]: 0.6 fold
ratio WT koff/mutant koff [4]: 4.6 fold
ratio WT koff/mutant koff [3]: 7.4 fold

Fc mutant 15 (R292P V305I P396L)
ratio WT koff/mutant koff [1]: 1.5 fold
ratio WT koff/mutant koff [2]: 0.9 fold
ratio WT koff/mutant koff [4]: 1.9 fold
ratio WT koff/mutant koff [3]: 1.9 fold
